Experiment: soluble on expression in E. coli; label from the status in PepcDB or PDB records

Soluble on expression in E. coli, not soluble:
MGSDKIHHHHHHMNKPERPSHLAAARREPTHYLTADERAAKGRALRDTVPRGSQSGWQAPEDRRDPIELLNESNAGRILDLVPIRYGRMAASPFAFYRGSASLMAADLATTPSSGIRVQACGDAHLMNFGGFATPERNIIFDINDLDETLPAPFEWDLKRLAASLAIAAEHLALPKSDAARVVTDVVREYRERMFNYGWMRALDVWYDRIDLQKYEDRSGDPEIVAAARKRLAQRIEGERRKTVPDYLYPKLVSEEGAKPRIKDEPPLIFHPTEELAPGMGSDYAQAIASYRSSLAEHVRVLFDRFHFFDMAIKVVGVGSVGTMCGVGLFLAADNDPLFLQVKEARASVLEPYAGKSLHANHGERVIAGQRLMQAASDVFLGWTRGENGRDFYLRQLRDMKLSAVIEDWDTGMLRQYGRMCAHALARAHARSGDAAMMAGYMGSGQAFDDAICEFATEYCSQNRSDFRTFVAAIREGRIEARLEAN, MGSDKIHHHHHHMNKPKVPPTITEQPDEQTFAYLLAHIQQTRQQVFAQVNTALIELYWSVGKTISEKVVSAGWGKGVVKQLAAYLASQAPDIKGFSDKNLWRMKQFYETYQHDIKLASLVRVLPWTHNTIIFSRCKSNREREHYLMLVQRERLSSRELERHINAAHFERSLIEQPKLSAVLRQSHPIANTIFKDNYTLEFLGLPSSHSESDLQKAIINNLKTFILELGKDFIFIDEEYRLQVGNQDFYIDLLFFHRGLAALVAFELKIGKFSPQHLGQLDFYLEALDRDVKKPHENPSIGVLLCRDKDDEVVEYALSRNLSPTLVAQYQCQMPDKQLLQAKLHQLLQDLPAQDELASQHMTEQMPRQGEYNE, MGSDKIHHHHHHMNKTITIDPVTRIEGHARVFIDLDDGGALKAAGLVVNELRGFEKILTGMDADRMPLVTARICGVCPTAHHLAATNALDNAAGVEPPTAAKLLRELMYMGHLIHSHCLSLFVLQGPDLVLGLDADPAIRNVVGVVQAVPDIARKALQCRSIGQKINELVGGRGTHPVTSVAGGIAFVLDADRERQLNAWIQEAHGLVLELAPVVKQLLMKMLDANPAMLEQWVIPAWSVGTVKGDGTIALVNGEIRAIDESGARKAQFPTAGYDTHLSEAAVDFSYMKQVSFVEGETRHDYRVGPLARLNISDRYGTPLADREREEFIRTVGRPCHANALQPWARLIELLYCTERAQEIMASPEIHGETRVPVKFSGGRGVGHVEAPRGTLIHDYEIDENGIVRAANLIVATQQNYALINTMIAQAATSHVINRPDDQALLNAVEFGIRCYDPCLSCATHALGAMPLEIVVNRADRPHLIRRNC, MGSDKIHHHHHHMNKYLNNINASYCCGCSACVHKCPKQCLRMSQDKDGFFFPIVNNREACIDCSLCAKVCPMENMVESDYPHTFYGAYNTNKTDIVNSSSGGIYPSLAKWIISQGGIVFGASLDDEHKLYHIGVSTESDIQKTIGSKYFQSEIRDTYVECKKELDKGRLVLYTGTPCQVHGLKRYLGKDYDNLYTADVICHGVPSSKMFDAYIDFLEKKHNGKLVDINFRDKKRNGWSITLRYTIEYSNDKRKDYYLINKLSEYFMAFLGGYIERESCYSCPFSSMRRPGDITMGDFWGYQFKRPDLKHDEGLSLIIVNSEHGKRIVDVLHRNGVQFNAVDEECVKASENKNLYKPTLRPEVRSVVYDELQNFGFEYIAKKYFRRTQTLRNKAKNYMPVALVNIIKKLK, MGSDKIHHHHHHMNLLKIIDDLQLEKIDQEEFLKPALRRGLFKKASDFSLKAALTSLPFALFAMPRIVQASTQANTQSVTDTLNYALTLEYLEEAFYVQGLAKSGLIDSADMTIFNQIKKHESAHVVFLKNVLGSAANPSPAFDFGTAFDSYANFLATAQALEDTGVRAYKGQAGNLITNKVALTAALQIHSVEARHASEVRRLRMLNGWIGVGEAGATYGAGEDANFPAESNLTQGGVDLSILASADVTMTNIAEAFDEPLDKNTVFGIAQGFIVS, MGSDKIHHHHHHMNLPLNVAPVAAAPASPIVELRQYTLNPGQRETLIALFDREFIESQEATGMTIIGQFRDLDRPDMFVWLRGFDGMDTRKEALAAFYDGPVWAAHRDAANATMTDSDDVLLLKPAWPSAGFDLSGLQRPVSAEQENSSNENHLGGIVVIRIHHLRSGAETEFASRFAAEAALIMKAHGVRLLAAFASEHAQNSFPRLPVRASENVFLSIARFDSAEAHASQEAALAAAPAWQSFLRAVQLDLTKPTETLRLSPTSRSLVGARFRMPR

Source: the DeepSol protein solubility set
